# Assay results from the supplement of paper PMC6755084.
# Tested on: F1*sub RNA substrate (template-directed ligation)
# Experiment: fraction ligated after 30 min (ligated reads / total reads); higher = more ligase activity; sequences stand for … in GAGACCGCAACTGAAAAGTTGT…AGTTCTGCACGTAGAAGCAAAAGGC
# Conditions: 42 °C
# Protocol: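 Chip-synthesised pool of F1* ligase ribozyme variants (all single and double substitutions, single, double and triple deletions in the catalytic core and GAA bulge, plus designed variants) was transcribed with T7 and reacted as a pool with excess substrate F1*sub for 30 min at 42 C in 50 mM EPPS pH 8.5, 25 mM MgCl2. Ligated and unligated bands were separated by PAGE, barcoded by RT and deep sequenced; fraction ligated = ligated reads / total reads per variant, relative activity = FL / FL of wild type (0.826). Sequences are the DNA template of the ribozyme.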
row,Sequence,fraction ligated
1,ATCACTTGTCTAAGACACTTTGGAGGGTTGA [3d181],0.155
2,ATCACTTGTCTAAGACACTTTGGATGGGTTA [3d183],0.656
3,ATCACTTGTCTAAGACACTTTGGATGGGTTG [3d184],0.762
4,ATCACTTGTCTAAGACACTTTGGATGGGTTGA [2d10],0.765
5,ATCACTTGTCTAAGACACTTTGGATGGTTGA [3d182],0.676
6,ATCACTTGTCTAAGACACTTTGGTGGGTTGA [3d180],0.0503
7,ATCACTTGTCTAAGACATTTGGATGGGTTGA [3d177],0.756
8,ATCACTTGTCTAAGACCTTTGGATGGGTTGA [3d176],0.717
9,ATCACTTGTCTAAGCACTTTGGATGGGTTGA [3d174],0.733
10,ATCACTTGTCTAGACACTTTGGATGGGTTGA [3d172],0.734
11,ATCACTTGTGAAGACACTTTGGATGGGTTGA [3d157],0.815
12,ATCACTTGTGTAAACACTTTGGATGGGTTGA [3d159],0.837
13,ATCACTTGTGTAAGAACTTTGGATGGGTTGA [3d161],0.88
14,ATCACTTGTGTAAGACACTTGGATGGGTTGA [3d164],0.719
15,ATCACTTGTGTAAGACACTTTGATGGGTTGA [3d165],0.453
16,ATCACTTGTGTAAGACACTTTGGAGGGTTGA [3d167],0.116
17,ATCACTTGTGTAAGACACTTTGGATGGGTTA [3d169],0.598
18,ATCACTTGTGTAAGACACTTTGGATGGGTTG [3d170],0.838
19,ATCACTTGTGTAAGACACTTTGGATGGGTTGA [2d9],0.853
20,ATCACTTGTGTAAGACACTTTGGATGGTTGA [3d168],0.45
21,ATCACTTGTGTAAGACACTTTGGTGGGTTGA [3d166],0.0152

row,Sequence,fraction ligated
1,ATCACTTGTGTAAGACATTTGGATGGGTTGA [3d163],0.798
2,ATCACTTGTGTAAGACCTTTGGATGGGTTGA [3d162],0.811
3,ATCACTTGTGTAAGCACTTTGGATGGGTTGA [3d160],0.854
4,ATCACTTGTGTAGACACTTTGGATGGGTTGA [3d158],0.864
5,ATCACTTGTTAAGACACTTTGGATGGGTTGA [3d156],0.787
6,ATCACTTTCGAAGACACTTTGGATGGGTTGA [3d126],0.698
7,ATCACTTTCGTAAACACTTTGGATGGGTTGA [3d128],0.779
8,ATCACTTTCGTAAGAACTTTGGATGGGTTGA [3d130],0.849
9,ATCACTTTCGTAAGACACTTGGATGGGTTGA [3d133],0.748
10,ATCACTTTCGTAAGACACTTTGATGGGTTGA [3d134],0.401
11,ATCACTTTCGTAAGACACTTTGGAGGGTTGA [3d136],0.0337
12,ATCACTTTCGTAAGACACTTTGGATGGGTTA [3d138],0.137
13,ATCACTTTCGTAAGACACTTTGGATGGGTTG [3d139],0.777
14,ATCACTTTCGTAAGACACTTTGGATGGGTTGA [2d7],0.772
15,ATCACTTTCGTAAGACACTTTGGATGGTTGA [3d137],0.191
16,ATCACTTTCGTAAGACACTTTGGTGGGTTGA [3d135],0.00882
17,ATCACTTTCGTAAGACATTTGGATGGGTTGA [3d132],0.781
18,ATCACTTTCGTAAGACCTTTGGATGGGTTGA [3d131],0.752
19,ATCACTTTCGTAAGCACTTTGGATGGGTTGA [3d129],0.766
20,ATCACTTTCGTAGACACTTTGGATGGGTTGA [3d127],0.781
21,ATCACTTTCTAAGACACTTTGGATGGGTTGA [3d125],0.753

row,Sequence,fraction ligated
1,ATCACTTTGTAAGACACTTTGGATGGGTTGA [3d124],0.787
2,ATCATGTCGTAAGACACTTTGGATGGGTTGA [3d86],0.722
3,ATCATTGCGTAAGACACTTTGGATGGGTTGA [3d88],0.755
4,ATCATTGTCGAAGACACTTTGGATGGGTTGA [3d91],0.728
5,ATCATTGTCGTAAACACTTTGGATGGGTTGA [3d93],0.77
6,ATCATTGTCGTAAGAACTTTGGATGGGTTGA [3d95],0.802
7,ATCATTGTCGTAAGACACTTGGATGGGTTGA [3d98],0.726
8,ATCATTGTCGTAAGACACTTTGATGGGTTGA [3d99],0.664
9,ATCATTGTCGTAAGACACTTTGGAGGGTTGA [3d101],0.12
10,ATCATTGTCGTAAGACACTTTGGATGGGTTA [3d103],0.093
11,ATCATTGTCGTAAGACACTTTGGATGGGTTG [3d104],0.703
12,ATCATTGTCGTAAGACACTTTGGATGGGTTGA [2d5],0.759
13,ATCATTGTCGTAAGACACTTTGGATGGTTGA [3d102],0.482
14,ATCATTGTCGTAAGACACTTTGGTGGGTTGA [3d100],0.109
15,ATCATTGTCGTAAGACATTTGGATGGGTTGA [3d97],0.729
16,ATCATTGTCGTAAGACCTTTGGATGGGTTGA [3d96],0.717
17,ATCATTGTCGTAAGCACTTTGGATGGGTTGA [3d94],0.727
18,ATCATTGTCGTAGACACTTTGGATGGGTTGA [3d92],0.761
19,ATCATTGTCTAAGACACTTTGGATGGGTTGA [3d90],0.663
20,ATCATTGTGTAAGACACTTTGGATGGGTTGA [3d89],0.79
21,ATCATTTCGTAAGACACTTTGGATGGGTTGA [3d87],0.654

row,Sequence,fraction ligated
1,ATCCTGTCGTAAGACACTTTGGATGGGTTGA [3d67],0.683
2,ATCCTTGCGTAAGACACTTTGGATGGGTTGA [3d69],0.768
3,ATCCTTGTCGAAGACACTTTGGATGGGTTGA [3d72],0.773
4,ATCCTTGTCGTAAACACTTTGGATGGGTTGA [3d74],0.789
5,ATCCTTGTCGTAAGAACTTTGGATGGGTTGA [3d76],0.719
6,ATCCTTGTCGTAAGACACTTGGATGGGTTGA [3d79],0.733
7,ATCCTTGTCGTAAGACACTTTGATGGGTTGA [3d80],0.71
8,ATCCTTGTCGTAAGACACTTTGGAGGGTTGA [3d82],0.1
9,ATCCTTGTCGTAAGACACTTTGGATGGGTTA [3d84],0.218
10,ATCCTTGTCGTAAGACACTTTGGATGGGTTG [3d85],0.716
11,ATCCTTGTCGTAAGACACTTTGGATGGGTTGA [2d4],0.744
12,ATCCTTGTCGTAAGACACTTTGGATGGTTGA [3d83],0.138
13,ATCCTTGTCGTAAGACACTTTGGTGGGTTGA [3d81],0.169
14,ATCCTTGTCGTAAGACATTTGGATGGGTTGA [3d78],0.725
15,ATCCTTGTCGTAAGACCTTTGGATGGGTTGA [3d77],0.703
16,ATCCTTGTCGTAAGCACTTTGGATGGGTTGA [3d75],0.715
17,ATCCTTGTCGTAGACACTTTGGATGGGTTGA [3d73],0.758
18,ATCCTTGTCTAAGACACTTTGGATGGGTTGA [3d71],0.716
19,ATCCTTGTGTAAGACACTTTGGATGGGTTGA [3d70],0.734
20,ATCCTTTCGTAAGACACTTTGGATGGGTTGA [3d68],0.791
21,ATCTTGTCGTAAGACACTTTGGATGGGTTGA [3d46],0.774
